B1: melanotransferrin p97(668-683) (peptide)
peptide: GQDLLFKDATVRAVPV
notes: Eluted from HLA-DR of dendritic cells; also called 13

Target: HLA-DR4 (DRB1*0401) (human)
Assay: in vitro peptide competition assay, purified HLA-DR, biotinylated HA(307-319) reporter

| Binder | binding result |
| --- | --- |
| B1 | binds |
| DKARVEVERDNLAEDIM (Eluted from HLA-DR of dendritic cells) [vimentin(167-183)] | binds |
| TLQSFRQDVDNASLAR (Eluted from HLA-DR of dendritic cells) [vimentin(202-217)] | binds |
